PMC5473870, “Crystal structure of the DNA-binding domain of Myelin-gene Regulatory Factor” (Scientific Reports, 2017)

B1: MyRF DBD core (proteolytically resistant, after limited proteolysis with trypsin) (domain or fragment, mouse)
chain: IKWQPHQQNKWATLYDANYKELPMLTYRVDADKGFNFSVGDDAFVCQKKNHFQVTVYIGMLGEPKYVKTPEGLKPLDCFYLKLHGVKLEALNQSINIEQSQSDRSKRPFNPVTVNLPPEQVTKVTVGRLHFSETTANNMRKKGKPNPDQRYFMLVVALQAHAQNQNYTLAAQISERIIVRAS
modifications: selenomethionyl substituted in the crystals (4 Se per molecule)
notes: Myelin-gene Regulatory Factor (MyRF), mouse, NP_001028653.1; trypsin-resistant core of about 24 kD, 210 residues, made from the expressed fragment 351-717; PDB 5H5P holds the crystallised chain; also called MyRF DBD core only; MyRF DBD (crystal structure); source: E. coli BL21 (DE3), nickel-sepharose, limited proteolysis with trypsin, purified (Superdex-75)
B2: MyRF DBD after auto-cleavage (351–586 plus N-terminal his tag and linker) (domain or fragment, mouse, UniProt Q3UR85-3 351-586, looked up)
chain: IKWQPHQQNKWATLYDANYKELPMLTYRVDADKGFNFSVGDDAFVCQKKNHFQVTVYIGMLGEPKYVKTPEGLKPLDCFYLKLHGVKLEALNQSINIEQSQSDRSKRPFNPVTVNLPPEQVTKVTVGRLHFSETTANNMRKKGKPNPDQRYFMLVVALQAHAQNQNYTLAAQISERIIVRASNPGQFESDSDVLWQRAQLPDTVFHHGRVGINTDRPDEALVVHGNVKVMGSLMHP
notes: Myelin-gene Regulatory Factor (MyRF), mouse, NP_001028653.1; N-terminal product (351-586) of auto-cleavage of the expressed fragment 351-717 (DBD and ICA); also called wild type MyRF DBD; source: E. coli BL21 (DE3), expressed as fragment 351-717, auto-cleaved, purified (nickel-sepharose); not shown: His6, N-terminal, kept

Biological target: the molecule itself
Assay: SEC; gel filtration on Superdex-200, 20 mM Tris-HCl pH 7.4, 50 mM NaCl, 5% glycerol; calibrated with ferritin, BSA and ovalbumin

Protein	stoichiometry N
B1	3
B2	3
